Experiments:
[1] = test system: cells transformed with patient-derived FGFR2 having ECD activating deletion mutations; experiment: patient-derived FGFR2 ECD mutation driven cell growth (FIG. 4F); assay type: cell-based; details: fold change from nonspecific IgG control
Source text: FIGS. 4A-4F present schematic diagrams, blots, images, tables and graphs showing that the FGFR2 extracellular domain is important for FGFR2 fusion driven cell growth and transformation and that patient-derived FGFR2 extracellular domain mutations increased transformation capacity. As also shown, some parental antibodies were effective in inhibiting ECD mutation driven cell growth. FIG. 4A is a graph showing that FGFR2-BICC1, FGFR2-AHCYL1, and FGFR2-PHGDH fusions grow faster compared to controls and respond to FGF ligands. The FGFR2 extracellular domain (ECD) contributes to the growth of transformed NIH3T3 cells expressing FGFR2 fusions. […] In addition, the ability of the antibodies described herein to inhibit the growth of the cells that overexpressed the ECD mutant FGFR2 fusions was assessed. […]
Expression of FGFR2-BICC1, FGFR2-AHCYL1, and FGFR2-PHGDH in NIH3T3 cells induced increased proliferation. […] By way of example, antibodies C, D, and E were effective in blocking the growth of cells having a patient-derived FGFR2 ECD activating mutation, as determined by assessing fold-increase or decrease from a nonspecific Ab (IgG) control (FIG. 4F); therefore, combinations of the binding regions of these antibodies in biparatopic antibodies may likely result in a synergistic blocking effect.

FGFR2IIIb = target: T1, FGFR2IIIb; experiment: row 'Kd (nM) (patent)', value quoted from the source patent; method: Radioimmunoassay-purified FGFR2IIIb
T1 construct: also called purified FGFR2IIIb
T1 chain: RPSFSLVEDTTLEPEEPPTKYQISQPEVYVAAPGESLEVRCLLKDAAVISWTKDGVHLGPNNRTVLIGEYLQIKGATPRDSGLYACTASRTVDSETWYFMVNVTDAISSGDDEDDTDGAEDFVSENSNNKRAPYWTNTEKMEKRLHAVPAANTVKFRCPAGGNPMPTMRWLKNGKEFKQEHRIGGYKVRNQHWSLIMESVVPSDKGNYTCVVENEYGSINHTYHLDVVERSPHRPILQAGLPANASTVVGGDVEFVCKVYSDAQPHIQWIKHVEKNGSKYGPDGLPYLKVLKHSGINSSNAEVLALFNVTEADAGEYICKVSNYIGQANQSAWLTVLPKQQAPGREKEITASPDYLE

B1: 2B 1.3.12 (antibody, V domains shown)
VH: EVQLVESGGGLVQPGGSLRLSCAASGFPFTSTGISWVRQAPGKGLEWVGRTHLGDGSTNYADSVKGRFTISADTSKNTAYLQMNSLRAEDTAVYYCARTYGIYDTYDMYTEYVMDYWGQGTLVTVSS
VL: DIQMTQSPSSLSASVGDRVTITCRASQDVDTSLAWYKQKPGKAPKLLIYSASFLYSGVPSRFSGSGSGTDFTLTISSLQPEDFATYYCQQSTGHPQTFGQGTKVEIK
notes: the duobody scheme implies IgG1 with K409R or F405L; also called Antibody D; GE
- blocking growth of cells having a patient-derived FGFR2 ECD activating mutation [1]: effective
- Kd (FGFR2IIIb): 3 nM
